Reference: patent US20200087364A1 (IMMATICS BIOTECHNOLOGIES, published 2020)

Target: T1, HLA-A*01:01 (human)
T1 construct: MHC class I monomer first loaded with a UV-sensitive peptide (not identified) that is cleaved by UV irradiation and exchanged for the tested peptide; captured on streptavidin plates, detected with anti-β2m; also called peptide-receptive MHC molecules
Assay: UV-ligand exchange, anti-b2m ELISA
Text: Candidate peptides for T cell based therapies according to the present invention were further tested for their MHC binding capacity (affinity). The individual peptide-MHC complexes were produced by UV-ligand exchange, where a UV-sensitive peptide is cleaved upon UV-irradiation and exchanged with the peptide of interest as analyzed. Only peptide candidates that can effectively bind and stabilize the peptide-receptive MHC molecules prevent dissociation of the MHC complexes. To determine the yield of the exchange reaction, an ELISA was performed based on the detection of the light chain (β2m) of stabilized MHC complexes. The assay was performed as generally described in Rodenko et al. (Rodenko et al., 2006)
96 well MAXISorp plates (NUNC) were coated over night with 2 ug/ml streptavidin in PBS at room temperature, washed 4× and blocked for 1 h at 37° C. in 2% BSA containing blocking buffer. Refolded HLA-A*02:01/MLA-001 monomers served as standards, covering the range of 15-500 ng/ml. Peptide-MHC monomers of the UV-exchange reaction were diluted 100-fold in blocking buffer. Samples were incubated for 1 h at 37° C., washed four times, incubated with 2 ug/ml HRP conjugated anti-β2m for 1 h at 37° C., washed again and detected with TMB solution that is stopped with […]. Absorption was measured at 450 nm.

**Q.** With RSDPVSLRY as the binder, how does the peptide exchange yield read?
**A.** > 75%

**Q.** With TVDNANILL as the binder, how does the peptide exchange yield read?
**A.** 20 to 50%

**Q.** How did the peptide exchange yield turn out when AQISDTGRY was run?
**A.** 20 to 50%

**Q.** How did the peptide exchange yield turn out when VSDSTTEITY was run?
**A.** 50 to 75%

**Q.** With EADPFLKYL as the binder, how does the peptide exchange yield read?
**A.** 20 to 50%

**Q.** How did the peptide exchange yield turn out when GLEYEAPKLY was run?
**A.** 20 to 50%

**Q.** Which peptide exchange yield does the source give for NVKEAPTEY here?
**A.** 20 to 50%

**Q.** For TQRTSFQFY, which peptide exchange yield is on record?
**A.** 20 to 50%

**Q.** Which peptide exchange yield does the source give for RMQEGSEVY here?
**A.** 20 to 50%

**Q.** With KLAGTVFQY as the binder, how does the peptide exchange yield read?
**A.** 20 to 50%

**Q.** LSAQHRMLA was tested. Which peptide exchange yield did it give?
**A.** 20 to 50%

**Q.** For VQIAKGMNY, which peptide exchange yield is on record?
**A.** 50 to 75%

**Q.** How did the peptide exchange yield turn out when DIPDYLLQY was run?
**A.** 50 to 75%

**Q.** KLTDYINANY was tested. Which peptide exchange yield did it give?
**A.** 20 to 50%

**Q.** How did the peptide exchange yield turn out when SSTDFTFASW was run?
**A.** 10 to 20%

**Q.** TQPELSSRY was tested. Which peptide exchange yield did it give?
**A.** 20 to 50%

**Q.** NSDESADSEPHKY was tested. Which peptide exchange yield did it give?
**A.** > 75%

**Q.** How did the peptide exchange yield turn out when IADNPQLSFY was run?
**A.** > 75%

**Q.** How did the peptide exchange yield turn out when YLNEWGSRF was run?
**A.** 20 to 50%

**Q.** For SIEVFTHY, which peptide exchange yield is on record?
**A.** 50 to 75%

**Q.** TSEVEGLAFVSY was tested. Which peptide exchange yield did it give?
**A.** 50 to 75%

**Q.** Which peptide exchange yield does the source give for VDPIGHLY here?
**A.** 20 to 50%

**Q.** With RLAQYTIERY as the binder, how does the peptide exchange yield read?
**A.** 20 to 50%

**Q.** How did the peptide exchange yield turn out when ITDFGLAKL was run?
**A.** 20 to 50%

**Q.** With VQPGETYTY as the binder, how does the peptide exchange yield read?
**A.** 50 to 75%

**Q.** How did the peptide exchange yield turn out when LTEGHSGNY was run?
**A.** > 75%

**Q.** TQKSVQVLAY was tested. Which peptide exchange yield did it give?
**A.** 20 to 50%

**Q.** With NSDISIPEY as the binder, how does the peptide exchange yield read?
**A.** 50 to 75%

**Q.** Which peptide exchange yield does the source give for LADTDLGMTF here?
**A.** 20 to 50%

**Q.** CYTADNEMGY was tested. Which peptide exchange yield did it give?
**A.** 50 to 75%

**Q.** How did the peptide exchange yield turn out when KTIQEVAGY was run?
**A.** 20 to 50%

**Q.** With YHRICELLSDY as the binder, how does the peptide exchange yield read?
**A.** > 75%

**Q.** How did the peptide exchange yield turn out when AVSSGLFFY was run?
**A.** 20 to 50%

**Q.** How did the peptide exchange yield turn out when NDEIDKLTGY was run?
**A.** > 75%

**Q.** Which peptide exchange yield does the source give for FSEPFHLIV here?
**A.** 50 to 75%

**Q.** LLEADPFLKY was tested. Which peptide exchange yield did it give?
**A.** > 75%

**Q.** FTRAFDQLRM was tested. Which peptide exchange yield did it give?
**A.** 50 to 75%

**Q.** With SLPEFGLTYY as the binder, how does the peptide exchange yield read?
**A.** 20 to 50%

**Q.** YLEDRPLSQ was tested. Which peptide exchange yield did it give?
**A.** 20 to 50%

**Q.** For LSQDELSKF, which peptide exchange yield is on record?
**A.** 20 to 50%

**Q.** How did the peptide exchange yield turn out when RQAPGPARDY was run?
**A.** 20 to 50%

**Q.** LVDGKWQEF was tested. Which peptide exchange yield did it give?
**A.** 20 to 50%

**Q.** HSIEVFTHY was tested. Which peptide exchange yield did it give?
**A.** 20 to 50%

**Q.** HTDLESPSAVY was tested. Which peptide exchange yield did it give?
**A.** 50 to 75%

**Q.** GLIEVVTGY was tested. Which peptide exchange yield did it give?
**A.** > 75%

**Q.** With ASWAVLCYY as the binder, how does the peptide exchange yield read?
**A.** 50 to 75%

**Q.** How did the peptide exchange yield turn out when RAVQPGETY was run?
**A.** 50 to 75%

**Q.** For LLEGEDAHLTQY, which peptide exchange yield is on record?
**A.** 50 to 75%

**Q.** For EVTDRNMLAF, which peptide exchange yield is on record?
**A.** 50 to 75%

**Q.** EAAPDIMHY was tested. Which peptide exchange yield did it give?
**A.** 20 to 50%

**Q.** For QTDINGGSLK, which peptide exchange yield is on record?
**A.** 50 to 75%

**Q.** With SVTDLIGGKW as the binder, how does the peptide exchange yield read?
**A.** 20 to 50%

**Q.** With EVLGEEMYAY as the binder, how does the peptide exchange yield read?
**A.** 20 to 50%

**Q.** FRGVFVHRY was tested. Which peptide exchange yield did it give?
**A.** 20 to 50%

**Q.** With LLISKAEDY as the binder, how does the peptide exchange yield read?
**A.** 20 to 50%

**Q.** Which peptide exchange yield does the source give for KIRAEVLSHY here?
**A.** 20 to 50%

**Q.** For LAFYYGMY, which peptide exchange yield is on record?
**A.** 20 to 50%

**Q.** Which peptide exchange yield does the source give for SLPEFGLTY here?
**A.** 20 to 50%

**Q.** How did the peptide exchange yield turn out when VSVYNSYPY was run?
**A.** 20 to 50%

**Q.** For STALSILLL, which peptide exchange yield is on record?
**A.** 20 to 50%

**Q.** With QSTTGVSHY as the binder, how does the peptide exchange yield read?
**A.** 50 to 75%

**Q.** Which peptide exchange yield does the source give for VSSTVHNLY here?
**A.** > 75%

**Q.** How did the peptide exchange yield turn out when LCAAVLAKY was run?
**A.** 20 to 50%

**Q.** Which peptide exchange yield does the source give for YTADNEMGYY here?
**A.** 50 to 75%

**Q.** Which peptide exchange yield does the source give for YLDSSKPAVY here?
**A.** 50 to 75%

**Q.** For HTMEVTVY, which peptide exchange yield is on record?
**A.** 50 to 75%

**Q.** How did the peptide exchange yield turn out when SQNGQLIHY was run?
**A.** 50 to 75%

**Q.** MMTDLTSVY was tested. Which peptide exchange yield did it give?
**A.** 50 to 75%
